Reference: patent publication US20030165897A1 (published 2003)

Target: T1, Patched (Ptc) (Drosophila, UniProt P18502 1-1286)
T1 construct: whole, on cells; Endogenous protein in vivo
T1 sequence (looked up): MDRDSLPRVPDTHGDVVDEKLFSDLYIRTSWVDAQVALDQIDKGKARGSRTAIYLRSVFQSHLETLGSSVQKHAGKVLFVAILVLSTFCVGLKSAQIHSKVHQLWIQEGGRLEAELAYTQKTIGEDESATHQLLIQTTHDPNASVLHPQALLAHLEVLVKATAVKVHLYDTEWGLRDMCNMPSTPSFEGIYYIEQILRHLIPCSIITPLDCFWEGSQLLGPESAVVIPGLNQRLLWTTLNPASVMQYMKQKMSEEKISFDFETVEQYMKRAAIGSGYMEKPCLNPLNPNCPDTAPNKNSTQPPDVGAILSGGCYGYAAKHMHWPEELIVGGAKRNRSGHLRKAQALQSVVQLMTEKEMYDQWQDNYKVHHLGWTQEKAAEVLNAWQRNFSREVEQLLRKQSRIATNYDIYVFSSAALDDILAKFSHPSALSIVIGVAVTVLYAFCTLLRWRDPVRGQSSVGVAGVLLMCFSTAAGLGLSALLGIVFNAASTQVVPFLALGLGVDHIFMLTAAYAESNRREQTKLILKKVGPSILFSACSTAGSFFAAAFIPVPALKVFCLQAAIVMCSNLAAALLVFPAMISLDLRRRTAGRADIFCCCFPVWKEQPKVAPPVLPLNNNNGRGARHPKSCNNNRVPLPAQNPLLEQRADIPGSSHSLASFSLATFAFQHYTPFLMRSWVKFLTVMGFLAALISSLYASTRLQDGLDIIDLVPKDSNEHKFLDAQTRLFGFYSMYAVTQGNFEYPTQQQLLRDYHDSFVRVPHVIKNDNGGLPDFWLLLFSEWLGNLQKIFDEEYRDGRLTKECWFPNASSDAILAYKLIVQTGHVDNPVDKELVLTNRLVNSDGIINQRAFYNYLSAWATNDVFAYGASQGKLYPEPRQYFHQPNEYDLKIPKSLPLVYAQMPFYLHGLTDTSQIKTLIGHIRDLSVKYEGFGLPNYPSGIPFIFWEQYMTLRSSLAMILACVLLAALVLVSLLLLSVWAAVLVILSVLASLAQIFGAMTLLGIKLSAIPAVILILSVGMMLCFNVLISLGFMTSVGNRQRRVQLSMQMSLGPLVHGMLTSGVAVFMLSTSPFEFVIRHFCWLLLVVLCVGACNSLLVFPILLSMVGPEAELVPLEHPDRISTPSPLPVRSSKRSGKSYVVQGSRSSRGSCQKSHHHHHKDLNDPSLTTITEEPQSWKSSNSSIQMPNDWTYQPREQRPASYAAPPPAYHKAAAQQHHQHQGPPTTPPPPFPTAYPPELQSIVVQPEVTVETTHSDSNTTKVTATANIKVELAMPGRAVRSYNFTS
Assay: in vivo immunostaining of wing imaginal discs (punctuate staining in anterior cells); hh-N^HA under en-Gal4 in hh ts2/ts2 animals at the non-permissive temperature
Excerpt: Expression of Hh-Nu in P cells of the wing imaginal disc results in dpp-lacZ expression in the entire A compartment of the disc, and a consequent dramatic enlargement of the A compartment. Thus Hh-Nu appears to have a range of action at least five fold larger than that of wild-type Hh. However, since this and previous experiments have been performed in the presence of endogenous Hh, it could not be ruled out that the observed extension of Hh activity depends on, or is even mediated by, endogenous Hh-Np whose range might be expanded in the presence of Hh-Nu. To address this, we created a situation where Hh-Nu is the sole source of Hh in imaginal discs by expressing hh-N^HA in P cells under en-Ga14 in hh^{ts2/ts2} animals that were shifted to the non-permissive temperature during early larval stages. […] Thus Hh-Nu alone is able to associate with Ptc and signal in vivo. The cholesterol anchor of Hh appears to be required for the sequestration of Hh by Ptc, since untethered Hh is seemingly unrestricted in its range. We cannot currently rule out the possibility that Hh-Nu is also, at least partially, sequestered by Ptc but that extracellular Hh-Nu levels are abnormally high and saturate the capacity of Ptc.
hh-temperature sensitive animals were generated using the hh^ts2 allel (Ma et al., 1993) balanced over the TM6b[Tb]balancer. […]

B1: Hh-Nu (cholesterol-free N-terminal portion of Drosophila Hedgehog, product of the hh-N^HA transgene) (ligand, not shown: small tags and cut ends)
chain: not shown
modifications: no C-terminal cholesterol (cholesterol-free)
notes: Expressed in P cells of wing imaginal discs under en-Gal4 in hh ts2/ts2 animals; also called unmodified Hh-Nu; untethered Hh
  binding result: binds
